Measurements from the supplement of paper PMC10567573.
± gives the standard deviation.

Assay: protein stability index of a GFP-peptide fusion (GPS, HEK-293T) (PSI 1-6); higher = more stable
Details: c terminus: a fixed tail appended
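Also: 24-mer peptide tiles fused after GFP, lentivirally expressed, FACS-sorted into six equal bins by GFP/DsRed ratio, decoded by Illumina sequencing, PSI is the read-weighted mean bin number.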

Sequence: NWLHRRLAGQFLEELRKFSSLCYK [MOG]
- protein stability index (treatment: DMSO): 2.5 ± 0.15
- protein stability index (treatment: MLN4924 1 uM, 8 h): 2.57 ± 0.27

Sequence: GRRGWKKFYAVLKGTILYLQKDEY [PSD2]
- protein stability index (treatment: DMSO): 3 ± 0.4
- protein stability index (treatment: MLN4924 1 uM, 8 h): 3.32 ± 0.37

Sequence: LFVGLYYNVIIGWSIFYFFKSFQY [SLC6A17]
- protein stability index (treatment: MLN4924 1 uM, 8 h): 3.17 ± 1.5

Sequence: LLSKKGALQSRAAQRHRGSAKDGG [PLEKHN1]
- protein stability index (treatment: DMSO): 4.31 ± 0.12
- protein stability index (treatment: MLN4924 1 uM, 8 h): 4.39 ± 0.28

Sequence: SPTIIFDNWIPLLWCANILGYAVS [DHCR7]
- protein stability index (treatment: DMSO): 3.36 ± 0.13
- protein stability index (treatment: MLN4924 1 uM, 8 h): 3.48 ± 0.42

Sequence: ALWCAAGAGHFEVVKLLVSHGANV [FEM1B]
- protein stability index (treatment: DMSO): 2.51 ± 1.3
- protein stability index (treatment: MLN4924 1 uM, 8 h): 2.37 ± 0.26

Sequence: MQPESGANGTVIAEFILLGLLEAP [OR3A1]
- protein stability index (treatment: DMSO): 2.18 ± 0.24
- protein stability index (treatment: MLN4924 1 uM, 8 h): 2.33 ± 0.42

Sequence: HSPFSSESRALSTSSNLGSQYQCE [TBX5]
- protein stability index (treatment: DMSO): 4.4 ± 0.35
- protein stability index (treatment: MLN4924 1 uM, 8 h): 4.53 ± 0.22

Sequence: EKLAPSEITEELPSSQLMPVKKQL [ZNF396]
- protein stability index (treatment: DMSO): 5.17 ± 0.15
- protein stability index (treatment: MLN4924 1 uM, 8 h): 5.14 ± 0.21

Sequence: VLRGRLYAIAGYDGNSLLSSIECY [KLHL12]
- protein stability index (treatment: DMSO): 1.91 ± 0.14
- protein stability index (treatment: MLN4924 1 uM, 8 h): 2.28 ± 0.13

Sequence: IFLYARPNSTFPIDKSMTVVLTFI [OR4A15]
- protein stability index (treatment: DMSO): 2.84 ± 0.37
- protein stability index (treatment: MLN4924 1 uM, 8 h): 3 ± 0.3

Sequence: IYLSTSSSKFYDLFLMDLSEGELG [RHOBTB2]
- protein stability index (treatment: DMSO): 3.38 ± 0.65
- protein stability index (treatment: MLN4924 1 uM, 8 h): 2.9 ± 0.39

Sequence: VKGRVRCLTAGPEVAAQLPAVRQL [ZSWIM9]
- protein stability index (treatment: DMSO): 3.19 ± 0.18
- protein stability index (treatment: MLN4924 1 uM, 8 h): 3.12 ± 0.43

Sequence: LYFKDKIFNVAIPRFHMACPTFRV [FBXO3]
- protein stability index (treatment: DMSO): 2.98 ± 0.92
- protein stability index (treatment: MLN4924 1 uM, 8 h): 2.65 ± 0.68

Sequence: VVYSKAASVPKVETVKSDNKDDDI [EIF5]
- protein stability index (treatment: DMSO): 5.23 ± 0.13
- protein stability index (treatment: MLN4924 1 uM, 8 h): 5.19 ± 0.11

Sequence: IVDIKPANMEDLTEVITASEFHPH [PPP2R2C]
- protein stability index (treatment: DMSO): 3.92 ± 0.28
- protein stability index (treatment: MLN4924 1 uM, 8 h): 3.9 ± 0.41

Sequence: RFLVGMMNGGMSLVAFVLLNECVG [SLC22A15]
- protein stability index (treatment: DMSO): 3.25 ± 0.35
- protein stability index (treatment: MLN4924 1 uM, 8 h): 2.9 ± 0.38

Sequence: LCTPEGWFSCQGPFDMDSCLSRHS [DFFB]
- protein stability index (treatment: DMSO): 2.52 ± 0.5
- protein stability index (treatment: MLN4924 1 uM, 8 h): 2.75 ± 0.38

Sequence: LRKKILKIRHGWEDVTKINKTEIC [STEAP1]
- protein stability index (treatment: DMSO): 2.29 ± 0.47
- protein stability index (treatment: MLN4924 1 uM, 8 h): 2.56 ± 0.48

Sequence: IFNYMRLGSTKLSDKDKAVGIFNT [OR3A1]
- protein stability index (treatment: DMSO): 2.1 ± 0.34
- protein stability index (treatment: MLN4924 1 uM, 8 h): 2.36 ± 0.25

Sequence: WALLCLGLLLPGGGAAWSIGAAPF [EMID1]
- protein stability index (treatment: DMSO): 3.54 ± 0.26
- protein stability index (treatment: MLN4924 1 uM, 8 h): 3.22 ± 0.19

Sequence: LRTRGRTRGWVQTLARMSRRTRGP [C6orf223]
- protein stability index (treatment: DMSO): 3.6 ± 0.23
- protein stability index (treatment: MLN4924 1 uM, 8 h): 3.97 ± 0.27

Sequence: FIEIELDRQELTYQELLRVCCCEL [ANKRD40]
- protein stability index (treatment: DMSO): 2.67 ± 0.61
- protein stability index (treatment: MLN4924 1 uM, 8 h): 2.67 ± 0.66

Sequence: SFFLQIYLIMIFLGLYINFRHLYK [HACD3]
- protein stability index (treatment: DMSO): 2.79 ± 0.2
- protein stability index (treatment: MLN4924 1 uM, 8 h): 2.52 ± 0.041

Sequence: TPCGPAQACMGGRCLHMDQLQDFN [ADAMTS4]
- protein stability index (treatment: DMSO): 2.63 ± 0.25
- protein stability index (treatment: MLN4924 1 uM, 8 h): 2.75 ± 0.17

Sequence: KRGFEVVYMTEPIDEYCVQQLKEF [HSP90AB1]
- protein stability index (treatment: DMSO): 2.56 ± 0.35

Sequence: ASVAMICAIASGSELSESAFGYFI [SLC29A1]
- protein stability index (treatment: DMSO): 2.94 ± 0.68
- protein stability index (treatment: MLN4924 1 uM, 8 h): 2.48 ± 0.52

Sequence: VWDASRAPRGTPDPGLGEGPALWL [PLEKHN1]
- protein stability index (treatment: DMSO): 2.74 ± 0.25
- protein stability index (treatment: MLN4924 1 uM, 8 h): 2.79 ± 0.38

Sequence: HPRGWNDHVHILDTETFTWSQPIT [KLHDC2]
- protein stability index (treatment: DMSO): 2.42 ± 0.29
- protein stability index (treatment: MLN4924 1 uM, 8 h): 2.71 ± 0.54

Sequence: PLWPGKSDVDQLYLIIRTLGKLIP [CDKL4]
- protein stability index (treatment: DMSO): 3.04 ± 0.39
- protein stability index (treatment: MLN4924 1 uM, 8 h): 2.34 ± 0.61

Sequence: TAYSRLNETQPIDLSGLPLQSSKN [RNF180]
- protein stability index (treatment: DMSO): 3.76 ± 0.27
- protein stability index (treatment: MLN4924 1 uM, 8 h): 3.86 ± 0.25

Sequence: SLCKVFGAHKDCQVAPLTHVFQRQ [TRIM55]
- protein stability index (treatment: DMSO): 2.41 ± 0.35
- protein stability index (treatment: MLN4924 1 uM, 8 h): 2.66 ± 0.2

Sequence: TTEKQRLVKKLQDSVLERWVNDPQ [GOLPH3L]
- protein stability index (treatment: DMSO): 3.71 ± 0.25
- protein stability index (treatment: MLN4924 1 uM, 8 h): 4.05 ± 0.076

Sequence: KGAILTTMLATRNFSAAKSLLKKP [CAMK2D]
- protein stability index (treatment: DMSO): 2.82 ± 0.53
- protein stability index (treatment: MLN4924 1 uM, 8 h): 2.8 ± 0.32

Sequence: TYRSLLESEDCKLPCNPCATTNAS [KRT34]
- protein stability index (treatment: DMSO): 3.9 ± 0.25
- protein stability index (treatment: MLN4924 1 uM, 8 h): 4.09 ± 0.2

Sequence: EPYPSQLLKPIPEYSPEEESEPPA [TRAF3IP2]
- protein stability index (treatment: DMSO): 5.45 ± 0.12
- protein stability index (treatment: MLN4924 1 uM, 8 h): 5.66 ± 0.18
